Results: PMC6744478, “Development of R7BP inhibitors through cross-linking coupled mass spectrometry and integrated modeling” (Communications Biology, 2019)

T1: RGS7/Gβ5 duplex (human, UniProt P49802 1-495; O14775-2 1-353)
T1 construct: RGS7 (regulator of G protein signaling 7), human; cDNA in pCMV3 vector from Sino Biological; holds the loop RGS7-LP21 at aa230–250; Gβ5 (GNB5), human, short form; also called RGS7 duplex; RGS7/HIS-Gβ5; source: Expi293 HEK cells, transfected, purified; not shown: 6x HIS (named on the purified RGS7/HIS-Gβ5 of the Western blot)
T1 sequence (looked up) 1: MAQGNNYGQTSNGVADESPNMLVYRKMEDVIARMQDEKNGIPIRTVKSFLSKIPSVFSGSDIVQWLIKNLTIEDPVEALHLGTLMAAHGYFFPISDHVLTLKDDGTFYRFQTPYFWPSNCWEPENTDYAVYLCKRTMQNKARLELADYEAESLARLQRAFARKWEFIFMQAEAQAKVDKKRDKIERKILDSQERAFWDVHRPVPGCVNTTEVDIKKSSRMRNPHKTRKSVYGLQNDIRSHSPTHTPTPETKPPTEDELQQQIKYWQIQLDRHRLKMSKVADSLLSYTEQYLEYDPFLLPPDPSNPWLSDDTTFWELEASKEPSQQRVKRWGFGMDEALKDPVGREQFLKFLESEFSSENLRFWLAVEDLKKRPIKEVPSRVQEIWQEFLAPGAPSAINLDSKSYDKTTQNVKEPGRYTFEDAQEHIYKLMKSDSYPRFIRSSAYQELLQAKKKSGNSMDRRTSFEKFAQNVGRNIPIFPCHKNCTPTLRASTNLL
T1 sequence (looked up) 2: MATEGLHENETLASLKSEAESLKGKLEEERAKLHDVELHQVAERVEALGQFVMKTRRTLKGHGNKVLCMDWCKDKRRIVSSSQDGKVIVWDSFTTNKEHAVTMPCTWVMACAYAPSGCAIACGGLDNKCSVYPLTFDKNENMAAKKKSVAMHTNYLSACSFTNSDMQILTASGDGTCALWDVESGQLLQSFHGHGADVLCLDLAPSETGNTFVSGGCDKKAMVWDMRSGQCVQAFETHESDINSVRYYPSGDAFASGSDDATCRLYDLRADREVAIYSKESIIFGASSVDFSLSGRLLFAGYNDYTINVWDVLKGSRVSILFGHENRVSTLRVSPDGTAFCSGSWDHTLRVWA

T2: RGS6/Gβ5 duplex (human, UniProt P49758 1-472; O14775-2 1-353)
T2 construct: RGS6 (regulator of G protein signaling 6), human; Gβ5 (GNB5), human, short form; Only GNB5 constructs with an N-terminal 6x HIS or TS tag are described; also called RGS6 duplex; source: Expi293 HEK cells, transfected, purified
T2 sequence (looked up) 1: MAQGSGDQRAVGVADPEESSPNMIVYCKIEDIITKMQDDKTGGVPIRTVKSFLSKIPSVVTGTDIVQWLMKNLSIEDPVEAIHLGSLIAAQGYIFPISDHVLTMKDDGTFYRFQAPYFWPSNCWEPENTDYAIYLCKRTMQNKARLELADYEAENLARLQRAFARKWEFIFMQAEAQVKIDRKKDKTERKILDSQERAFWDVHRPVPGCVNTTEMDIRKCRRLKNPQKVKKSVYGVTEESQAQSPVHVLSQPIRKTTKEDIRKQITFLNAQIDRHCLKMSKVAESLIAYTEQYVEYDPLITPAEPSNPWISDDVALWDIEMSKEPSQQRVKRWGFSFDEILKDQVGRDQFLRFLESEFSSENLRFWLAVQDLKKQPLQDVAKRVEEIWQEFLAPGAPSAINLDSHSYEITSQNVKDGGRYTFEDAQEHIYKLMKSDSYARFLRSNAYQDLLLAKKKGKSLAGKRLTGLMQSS
T2 sequence (looked up) 2: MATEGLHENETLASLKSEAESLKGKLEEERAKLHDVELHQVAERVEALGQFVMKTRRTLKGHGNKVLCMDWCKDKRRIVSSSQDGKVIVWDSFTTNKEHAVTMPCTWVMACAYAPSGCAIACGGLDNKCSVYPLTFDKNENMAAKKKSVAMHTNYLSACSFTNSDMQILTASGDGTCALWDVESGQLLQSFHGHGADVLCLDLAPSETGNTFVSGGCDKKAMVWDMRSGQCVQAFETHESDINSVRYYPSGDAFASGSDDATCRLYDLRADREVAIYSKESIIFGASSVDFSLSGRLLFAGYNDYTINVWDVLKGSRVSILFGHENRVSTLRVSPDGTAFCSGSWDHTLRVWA

T3: RGS9/Gβ5 duplex (human, UniProt O75916 1-674; O14775-2 1-353)
T3 construct: RGS9-2 (regulator of G protein signaling 9, splice form 2), human; cDNA in pCMV3 vector from Sino Biological; Gβ5 (GNB5), human, short form; also called RGS9 duplex; RGS9-2/Gβ5; source: Expi293 HEK cells, transfected, purified
T3 sequence (looked up) 1: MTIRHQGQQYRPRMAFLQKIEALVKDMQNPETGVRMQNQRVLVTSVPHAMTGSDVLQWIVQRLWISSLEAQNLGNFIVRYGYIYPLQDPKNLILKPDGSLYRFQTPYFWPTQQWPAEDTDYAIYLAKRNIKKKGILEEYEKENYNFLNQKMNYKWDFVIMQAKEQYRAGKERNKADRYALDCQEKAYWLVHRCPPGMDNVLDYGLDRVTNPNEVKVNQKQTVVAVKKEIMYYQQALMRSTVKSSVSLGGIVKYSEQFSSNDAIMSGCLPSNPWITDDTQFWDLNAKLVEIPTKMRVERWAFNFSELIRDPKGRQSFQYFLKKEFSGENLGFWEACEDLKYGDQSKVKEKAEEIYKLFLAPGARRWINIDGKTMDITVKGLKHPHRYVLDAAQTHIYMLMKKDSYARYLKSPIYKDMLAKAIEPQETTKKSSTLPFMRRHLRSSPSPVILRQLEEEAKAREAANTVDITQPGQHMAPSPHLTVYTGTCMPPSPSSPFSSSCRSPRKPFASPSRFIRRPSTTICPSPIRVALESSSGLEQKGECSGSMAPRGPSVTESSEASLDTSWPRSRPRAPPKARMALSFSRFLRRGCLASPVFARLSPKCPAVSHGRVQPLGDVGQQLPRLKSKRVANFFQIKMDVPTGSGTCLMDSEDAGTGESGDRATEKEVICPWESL
T3 sequence (looked up) 2: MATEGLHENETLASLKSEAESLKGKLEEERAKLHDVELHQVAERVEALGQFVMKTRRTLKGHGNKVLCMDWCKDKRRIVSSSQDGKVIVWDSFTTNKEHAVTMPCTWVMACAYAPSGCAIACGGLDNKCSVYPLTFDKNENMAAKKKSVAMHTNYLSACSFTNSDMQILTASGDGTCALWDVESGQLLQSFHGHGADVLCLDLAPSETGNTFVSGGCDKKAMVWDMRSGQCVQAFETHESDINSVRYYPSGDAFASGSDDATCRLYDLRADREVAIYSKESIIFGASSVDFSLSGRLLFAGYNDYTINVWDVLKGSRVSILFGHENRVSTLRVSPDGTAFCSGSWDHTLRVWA


Tests used:
Assay in all cases: SPR; OpenSPR (Nicoya), Streptavidin sensor chip; tagged R7BP variant as ligand, purified R7-RGS/Gβ5 duplex as analyte at 3–5 concentrations; PBS pH 7.4, 0.005% Tween20; 25 µL per minute; 1:1-binding model; two independent experiments
Conditions in all cases: both partners purified
RGS7/Gβ5 duplex = molecular target: T1, RGS7/Gβ5 duplex
RGS6/Gβ5 duplex = molecular target: T2, RGS6/Gβ5 duplex
RGS11/Gβ5 duplex = molecular target: T4, RGS11/Gβ5 duplex (human, UniProt O94810 1-467; O14775-2 1-353)
T4 construct: RGS11 (regulator of G protein signaling 11), human; Gβ5 (GNB5), human, short form; also called RGS11 duplex; source: Expi293 HEK cells, transfected, purified

RGS9/Gβ5 duplex = molecular target: T3, RGS9/Gβ5 duplex

T4 sequence (O94810 whole entry, one chain of several): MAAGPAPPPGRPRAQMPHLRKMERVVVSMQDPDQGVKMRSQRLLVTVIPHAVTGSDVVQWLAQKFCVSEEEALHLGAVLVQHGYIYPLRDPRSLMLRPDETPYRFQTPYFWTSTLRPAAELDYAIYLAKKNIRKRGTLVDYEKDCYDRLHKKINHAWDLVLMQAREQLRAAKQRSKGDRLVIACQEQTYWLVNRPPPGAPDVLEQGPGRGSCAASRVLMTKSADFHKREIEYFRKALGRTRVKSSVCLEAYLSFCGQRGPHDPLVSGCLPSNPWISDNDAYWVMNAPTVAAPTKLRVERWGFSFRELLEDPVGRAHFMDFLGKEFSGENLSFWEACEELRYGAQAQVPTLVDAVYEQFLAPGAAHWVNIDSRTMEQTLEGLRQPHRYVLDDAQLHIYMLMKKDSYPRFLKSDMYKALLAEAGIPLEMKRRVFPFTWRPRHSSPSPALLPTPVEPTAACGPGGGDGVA

Kd (RGS7/Gβ5 duplex) [nM] | Kd (RGS6/Gβ5 duplex) [nM] | Kd (RGS11/Gβ5 duplex) [nM] | Kd (RGS9/Gβ5 duplex) [nM] | Binder
1.8 | – | – | – | R7BPΔN (domain or fragment, human, UniProt Q6MZT1 22-257, looked up, R7BP (RGS7BP), human, lacking the N-terminal 21 amino acids (R7BP-N21); C252S, C253S are stated for all R7BP constructs; Its tag is surmised from its use as SPR ligand; also called truncated R7BP derivative lacking the N-terminal 21 amino acids; source: Expi293 HEK cells, transfected, purified) QISKPPLQSGDWERRGSGSESAHKTQRALDDCKMLVQEFNTQVALYRELVISIGDVSVSCPSLRAEMHKTRTKGCEMARQAHQKLAAISGPEDGEIHPEICRLYIQLQCCLEMYTTEMLKSICLLGSLQFHRKGKEPGGGTKSLDCKIEESAETPALEDSSSSPVDSQQHSWQVSTDIENTERDMREMKNLLSKLRETMPLPLKNQDDSSLLNLTPYPLVRRRKRRFFGLSSLISS
19 | 2.3 | 2.3 | 1.5 | R7BP-FL (full-length R7BP; construct R7BP-TEV-TS) (natural protein, human, UniProt Q6MZT1 1-257, looked up, last residue 257 by the printed aa223–257; palmitoylation site removed; also called RGS7BP; source: Expi293 HEK cells, transfected, purified (StrepTrap HP; SEC if needed); not shown: Twin-Strep (after a TEV protease site), C-terminal, kept) MSSAPNGRKKRPSRSTRSSIFQISKPPLQSGDWERRGSGSESAHKTQRALDDCKMLVQEFNTQVALYRELVISIGDVSVSCPSLRAEMHKTRTKGCEMARQAHQKLAAISGPEDGEIHPEICRLYIQLQCCLEMYTTEMLKSICLLGSLQFHRKGKEPGGGTKSLDCKIEESAETPALEDSSSSPVDSQQHSWQVSTDIENTERDMREMKNLLSKLRETMPLPLKNQDDSSLLNLTPYPLVRRRKRRFFGLSSLISS
9.9 | – | – | – | R7BPΔC (domain or fragment, human, UniProt Q6MZT1 1-222, looked up, R7BP (RGS7BP), human, C-terminus aa223–257 removed (the mutated cysteines 252 and 253 lie in the removed stretch); Its tag is surmised from its use as SPR ligand; also called R7BP with the C-terminus (aa223–257) removed; source: Expi293 HEK cells, transfected, purified) MSSAPNGRKKRPSRSTRSSIFQISKPPLQSGDWERRGSGSESAHKTQRALDDCKMLVQEFNTQVALYRELVISIGDVSVSCPSLRAEMHKTRTKGCEMARQAHQKLAAISGPEDGEIHPEICRLYIQLQCCLEMYTTEMLKSICLLGSLQFHRKGKEPGGGTKSLDCKIEESAETPALEDSSSSPVDSQQHSWQVSTDIENTERDMREMKNLLSKLRETMPL
